Assay results reported in publication PMC6202311, “Substrate Recognition and Autoinhibition in the Central Ribonuclease RNase E”.

Molecular target: RNase E NTD D303R D346R (Escherichia coli, UniProt P21513 1-529, D303R;D346R)
Assay: crystal structure (3.0 A); Mg2+, Zn2+; BLI: 25 mM HEPES pH 7.0, 150 mM NaCl, 100 mM KCl, 10 mM CaCl2, 0.5 mM TCEP; RNA immobilised on streptavidin sensors, protein 0-500 nM; temperature not stated
Details: protein: recombinant; tags: N-terminal His; chain copies: 4; hairpin, 3' single-stranded tail

Binder: GUUAUAUGCCUUCUUGGAGGUAUAUAACAAAGAC (structured_RNA, 5' monophosphate; 2'-O-methyl on A33 and C34 (ompD +82, +83)) [MicC-ompD fusion]
- binding result: binds
